Source: the DeepSol protein solubility set

Assay: soluble on expression in E. coli; label from the status in PepcDB or PDB records

Sequence | soluble on expression in E. coli
QSTIKIVLIEDTKTLDEVVVIGYGTQKKSDVSGSVTSVSGDKLSKIPTANAEMALQGMAPGLSVNFGSGAAGSSATLQVRGVTSWKDDDGENSESNGPLVIIDGVPGNMSYLNPEDIKSISVLKDAATAAIYGSRSAAGVILIETHRGT | not soluble
MGSDKIHHHHHHSPTQELNSAKIISTLTAHYGERAGLRAKAWFQVLSKAEHVDEQEKLKMVNQFFNLFRFVEDKTLWGDSNYWATPMEFIGVNGGDCEDFSIAKYFTLLQLGVSEDKLRITMVKATTMNQYHMVLAYYPTPSSIPLVLDNLDREIKPATQRNDLLPVYSFNGKQLWLNKEKGRGVLAGSSSRLKKWNDLKHRLGVDRLRQPKLKME | not soluble
MKFPGQRKSKHYFPVHARDPLVIQAQENKKMSRTHIIGIDQTLVDIEAKVDSDLIERYGLSKGHSLVIDDHAAEALYNELKEQRLITNEYAGGTIGNTLHNYSVLADDRSTLLGVMSQDIKIGSYGYRYLCNTSSRMDLNYLQGVDGAIGRCFALITEDGERTFAISEGQMNQLRPDSIPEKIFASASALVITAYLVRCKEGDPMPEATMRAIEYAKKYDVPVVLTLGTKFVIQDDPKFWQEFLRDHVTVVAMNEDEALALTGESDPLAASDKALDWVDLVLCTAGPVGLFMAGYTEDSAKRETSLPLLPGSVPEFNRYEFSRPARKESCINPIRVYSHISPYMGGPEKIKNTNGAGDAALSALLHDMAANKYHKENVPNSSKHQHEFLTYSSFSQVCKYSNRASYEVLAQHSPRLSRGLPEREDSLEEAYWER | not soluble
MSIMSYTGGTVVAMAGDECVCIASDLRIGEQMTTIATDQKKVHKVTDKVYVGLAGFQSDARTVLEKIMFRKNLYELRENRNIKPQVLSEMISNLAYQHRFGSYFTEPLVAGLDDTNKPYICCMDTIGCVSAPRDFVAVGTGQEYLLGVCENFWRENMKPDELFEATAQSILSCLERDAASGWGAVVYTITKDKVNVSTIKARMD | not soluble
MSLAAVILDYNGVIGLQPTTDQWLRLARTALWPEDDLPAFQNAFWTARTAYDAGHLSDLAYWATVLGHHPGARRLRGLRDADTDMWTSIDDHVIDVLHQAHESGLPLVLLSNAPRHLSDVLDRRPWRRLMTHAFYSARLQVCKPDPAAYQHAMNATGAADPDRVLFVDDRADNCHAARHLGLRTLHYTGHPTDLAAALQPPNEGHHHHHH | soluble
MSCVQQQRRSTGLRIAERLNKYITLPNRHSFTVDSKDVFQRGQVLSYIRSKAPFLLEHISEAKERLITVTSRGLMIIYENDDHGLVIDLRSARNVLCTADRSKKQRHFRCHIKIRMQRGNVHLFVGHNDVHKWTCAIMRAAGKCLPSTEPRDDGSLNVAMMTAVEDSGIFEEMSSTSSASYDYDEDDEVDEVKPTAIEQIPLPHVSVRSLRQKLEKELVLKPKEQVLAEQQHKANCDEPSFVSEIFCTPRAVFSDETVVLLEPTNARERREYEAQADRENQWWTRSLRC | not soluble
MEGCVSNIMICNLAYSGKLDELKERILADKSLATRTDQDSRTALHWACSAGHTEIVEFLLQLGVPVNDKDDAGWSPLHIAASAGRDEIVKALLVKGAHVNAVNQNGCTPLHYAASKNRHEIAVMLLEGGANPDAKDHYDATAMHRAAAKGNLKMVHILLFYKASTNIQDTEGNTPLHLACDEERVEEAKFLVTQGASIYIENKEEKTPLQVAKGGLGLILKRLAEGEEASM | soluble
TDLVAVWDVALSDGVHKIEFEHGTTSGKRVVYVDGKEEIRKEWMFKLVGKETFYVGAAKTKATINIDAISGFAYEYTLEINGKSLKKYMEDRSKTTNTWVLHMDGENFRIVLEKDAMDVWCNGKKLETAGEFVDDGTETHFSIGNHDCYIKAVSSGKRKEGIIHTLIVD | not soluble
SLQPYEKYLKLNSQKLRADQTDTERKLWQRINRDQLLGFRFNRQKPLLSYIVDFYCAKTKLIIELDGSQHYKPDYQEKDALRDAELNSLGFTVMRFSNDEVMREIEAVVEQIYLFLENVRTD | not soluble
